Results: the RNAGym collection of RNA variant scans (doi:10.1093/molbev/msab373)

B1: Azoarcus group I ribozyme (parent)
chain: GUGCCUUGCGCCGGGAAACCACGCAAGGGAUGGUGUCAAAUUCGGCGAAACCUAAGCGCCCGCCCGGGCGUAUGGCAACGCCGAGCCAAGCUUCGGCGCCUGCGCCGAUGAAGGUGUAGAGACUAGACGGCACCCACCUAAGGCAAACGCUAUGGUGAAGGCAUAGUCCAGGGAGUGGCGAAAGUCACACAAACCGG

Variants of: B1
Assay: reverse-splicing fitness (ratio to wild type); higher = more active; in vitro selection; Mg2+ level not given
Outline: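 An in vitro group I ribozyme library with randomized positions was T7-transcribed and gel-purified. In triplicate, 10 pmol RNA in EPPS pH 7.5 was reacted with 50 pmoles of a 30-nt RNA substrate for 1 h at 37 °C across several added MgCl2 levels (1–48 mM), then stopped with EDTA. Products were reverse transcribed from a substrate-complementary primer, PCR-amplified and sequenced (HiSeq 4000). Fitness is a variant's read proportion after selection over that before, normalised to wild type.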

Q: For C82U A111C A145U C150G C169G U176G, which reverse-splicing fitness is on record?
A: The reverse-splicing fitness was 0.00703.

Q: Which reverse-splicing fitness does the source give for C82U A111C A145U C150G C169G U176A here?
A: Its reverse-splicing fitness is 0.00648.

Q: Which reverse-splicing fitness does the source give for C82U A111C A145U C150A C169U U176G here?
A: Its reverse-splicing fitness is 0.00805.

Q: Which reverse-splicing fitness does the source give for C82U A111C A145U C150A C169U U176C here?
A: The reverse-splicing fitness was 0.013.

Q: For C82U A111C A145U C150A C169U U176A, which reverse-splicing fitness is on record?
A: The reverse-splicing fitness was 0.0193.

Q: Which reverse-splicing fitness does the source give for C82U A111G A120C A145U C150G C169U here?
A: Its reverse-splicing fitness is 0.00776.

Q: Which reverse-splicing fitness does the source give for C82U A111G A120C A145U C150G C169G here?
A: The reverse-splicing fitness was 0.00698.

Q: With C82U A111G A120C A145U C150G C169A as the variant, how does the reverse-splicing fitness read?
A: Its reverse-splicing fitness is 0.00804.

Q: With C82U A111G A120C A145U C150A C169A as the variant, how does the reverse-splicing fitness read?
A: The reverse-splicing fitness was 0.00739.

Q: For C82U A111G A120C A145U C150A C169U, which reverse-splicing fitness is on record?
A: Its reverse-splicing fitness is 0.00709.

Q: For C82U A111G A120C A145U C150A C169G, which reverse-splicing fitness is on record?
A: The reverse-splicing fitness was 0.00798.

Q: Which reverse-splicing fitness does the source give for C82U A111C A145U C150U C169G U176C here?
A: Its reverse-splicing fitness is 0.0165.

Q: Which reverse-splicing fitness does the source give for C82U A111C A145U C150U C169G U176G here?
A: The reverse-splicing fitness was 0.00709.

Q: With C82U A111C A145U C150U C169G U176A as the variant, how does the reverse-splicing fitness read?
A: The reverse-splicing fitness was 0.0121.

Q: With C82U A111C A145U C169G U176G as the variant, how does the reverse-splicing fitness read?
A: The reverse-splicing fitness was 0.00667.

Q: Which reverse-splicing fitness does the source give for C82U A111C A145U C169G U176A here?
A: Its reverse-splicing fitness is 0.0145.

Q: For C82U A111C A145U C169G U176C, which reverse-splicing fitness is on record?
A: Its reverse-splicing fitness is 0.0162.

Q: Which reverse-splicing fitness does the source give for C82U A111C A145U C150A U176C here?
A: Its reverse-splicing fitness is 0.022.

Q: For C82U A111C A145U C150A U176G, which reverse-splicing fitness is on record?
A: Its reverse-splicing fitness is 0.00817.

Q: With C82U A111C A145U C150A U176A as the variant, how does the reverse-splicing fitness read?
A: Its reverse-splicing fitness is 0.0153.

Q: With C82U A111C C150G U176C as the variant, how does the reverse-splicing fitness read?
A: The reverse-splicing fitness was 0.0147.

Q: Which reverse-splicing fitness does the source give for C82U A111C C150G U176A here?
A: Its reverse-splicing fitness is 0.00801.

Q: With C82U A111C C150G U176G as the variant, how does the reverse-splicing fitness read?
A: The reverse-splicing fitness was 0.00363.

Q: Which reverse-splicing fitness does the source give for C82U A111G A120C A145C C150G C169U here?
A: Its reverse-splicing fitness is 0.00749.

Q: Which reverse-splicing fitness does the source give for C82U A111G A120C A145C C150G C169A here?
A: Its reverse-splicing fitness is 0.0076.

Q: With C82U A111G A120C A145C C150G C169G as the variant, how does the reverse-splicing fitness read?
A: Its reverse-splicing fitness is 0.00679.

Q: Which reverse-splicing fitness does the source give for C82U A111G A120C A145G C150U C169G U176G here?
A: The reverse-splicing fitness was 0.00507.

Q: With C82U A111G A120C A145G C150U C169G U176C as the variant, how does the reverse-splicing fitness read?
A: Its reverse-splicing fitness is 0.0188.

Q: Which reverse-splicing fitness does the source give for C82U A111G A120C A145G C150U C169G U176A here?
A: The reverse-splicing fitness was 0.0191.

Q: Which reverse-splicing fitness does the source give for C82U A111C A145U C150A C169G U176A here?
A: The reverse-splicing fitness was 0.0138.

Q: For C82U A111C A145U C150A C169G U176C, which reverse-splicing fitness is on record?
A: The reverse-splicing fitness was 0.0178.

Q: Which reverse-splicing fitness does the source give for C82U A111C A145U C150A C169G U176G here?
A: The reverse-splicing fitness was 0.00796.

Q: Which reverse-splicing fitness does the source give for C82U A111G A120C A145G C169G U176C here?
A: The reverse-splicing fitness was 0.0179.

Q: For C82U A111G A120C A145G C169G U176A, which reverse-splicing fitness is on record?
A: Its reverse-splicing fitness is 0.0181.

Q: Which reverse-splicing fitness does the source give for C82U A111G A120C A145G C169G U176G here?
A: The reverse-splicing fitness was 0.00407.

Q: For C82U A111G A120C A145U C150G C169G U176G, which reverse-splicing fitness is on record?
A: Its reverse-splicing fitness is 0.00386.

Q: With C82U A111G A120C A145U C150G C169G U176C as the variant, how does the reverse-splicing fitness read?
A: The reverse-splicing fitness was 0.00388.

Q: For C82U A111G A120C A145U C150G C169G U176A, which reverse-splicing fitness is on record?
A: The reverse-splicing fitness was 0.0063.

Q: Which reverse-splicing fitness does the source give for C82U A111G A120C A145C C150U C169U here?
A: The reverse-splicing fitness was 0.00927.

Q: For C82U A111G A120C A145C C150U C169G, which reverse-splicing fitness is on record?
A: Its reverse-splicing fitness is 0.0077.

Q: With C82U A111G A120C A145C C150U C169A as the variant, how does the reverse-splicing fitness read?
A: The reverse-splicing fitness was 0.00705.

Q: Which reverse-splicing fitness does the source give for C82U A111G A120C A145G C150U C169U here?
A: The reverse-splicing fitness was 0.0127.

Q: With C82U A111G A120C A145G C150U C169A as the variant, how does the reverse-splicing fitness read?
A: Its reverse-splicing fitness is 0.00939.

Q: For C82U A111G A120C A145G C150U C169G, which reverse-splicing fitness is on record?
A: The reverse-splicing fitness was 0.0102.

Q: For C82U A111C C150A U176C, which reverse-splicing fitness is on record?
A: Its reverse-splicing fitness is 0.0276.

Q: With C82U A111C C150A U176A as the variant, how does the reverse-splicing fitness read?
A: The reverse-splicing fitness was 0.0143.

Q: For C82U A111C C150A U176G, which reverse-splicing fitness is on record?
A: The reverse-splicing fitness was 0.00812.

Q: With C82U A111G A120C A145G C150G C169U U176G as the variant, how does the reverse-splicing fitness read?
A: The reverse-splicing fitness was 0.0053.

Q: For C82U A111G A120C A145G C150G C169U U176C, which reverse-splicing fitness is on record?
A: Its reverse-splicing fitness is 0.0109.

Q: For C82U A111G A120C A145G C150G C169U U176A, which reverse-splicing fitness is on record?
A: Its reverse-splicing fitness is 0.00704.

Q: With C82U A111G A120C A145G C150G C169A U176G as the variant, how does the reverse-splicing fitness read?
A: The reverse-splicing fitness was 0.00661.

Q: For C82U A111G A120C A145G C150G C169A U176C, which reverse-splicing fitness is on record?
A: The reverse-splicing fitness was 0.0107.

Q: Which reverse-splicing fitness does the source give for C82U A111G A120C A145G C150G C169A U176A here?
A: Its reverse-splicing fitness is 0.0113.

Q: With C82U A111G A120C A145G C150A as the variant, how does the reverse-splicing fitness read?
A: The reverse-splicing fitness was 0.0129.

Q: For C82U A111G A120C A145G C150G, which reverse-splicing fitness is on record?
A: The reverse-splicing fitness was 0.00985.

Q: Which reverse-splicing fitness does the source give for C82U A111G A120C A145G C150U here?
A: Its reverse-splicing fitness is 0.042.

Q: For C82U A111C A145U C150A C169A U176G, which reverse-splicing fitness is on record?
A: The reverse-splicing fitness was 0.00756.

Q: With C82U A111C A145U C150A C169A U176A as the variant, how does the reverse-splicing fitness read?
A: The reverse-splicing fitness was 0.0124.

Q: With C82U A111C A145U C150A C169A U176C as the variant, how does the reverse-splicing fitness read?
A: Its reverse-splicing fitness is 0.0128.

Q: With C82U A111C A145G C150U U176A as the variant, how does the reverse-splicing fitness read?
A: The reverse-splicing fitness was 0.0576.

Q: With C82U A111C A145G C150U U176G as the variant, how does the reverse-splicing fitness read?
A: Its reverse-splicing fitness is 0.0161.

Q: With C82U A111C A145G C150U U176C as the variant, how does the reverse-splicing fitness read?
A: Its reverse-splicing fitness is 0.085.

Q: For C82U A111G A120C A145C U176A, which reverse-splicing fitness is on record?
A: The reverse-splicing fitness was 0.0156.

Q: For C82U A111G A120C A145C U176G, which reverse-splicing fitness is on record?
A: Its reverse-splicing fitness is 0.00487.

Q: Which reverse-splicing fitness does the source give for C82U A111G A120C A145C U176C here?
A: The reverse-splicing fitness was 0.0213.

Q: Which reverse-splicing fitness does the source give for C82U A111C C169U U176C here?
A: The reverse-splicing fitness was 0.0146.

Q: With C82U A111C C169U U176G as the variant, how does the reverse-splicing fitness read?
A: The reverse-splicing fitness was 0.00681.

Q: With C82U A111C C169U U176A as the variant, how does the reverse-splicing fitness read?
A: Its reverse-splicing fitness is 0.0179.

Q: With C82U A111C C150U as the variant, how does the reverse-splicing fitness read?
A: Its reverse-splicing fitness is 0.123.

Q: With C82U A111C C150A as the variant, how does the reverse-splicing fitness read?
A: Its reverse-splicing fitness is 0.0255.

Q: With C82U A111C C150G as the variant, how does the reverse-splicing fitness read?
A: Its reverse-splicing fitness is 0.0163.

Q: For C82U A111G, which reverse-splicing fitness is on record?
A: Its reverse-splicing fitness is 0.477.

Q: For C82U A111G A120C A145G C150A C169G, which reverse-splicing fitness is on record?
A: The reverse-splicing fitness was 0.0105.

Q: For C82U A111G A120C A145G C150A C169A, which reverse-splicing fitness is on record?
A: The reverse-splicing fitness was 0.00928.

Q: With C82U A111G A120C A145G C150A C169U as the variant, how does the reverse-splicing fitness read?
A: The reverse-splicing fitness was 0.0111.

Q: With C82U A111C C150G C169A U176G as the variant, how does the reverse-splicing fitness read?
A: Its reverse-splicing fitness is 0.00672.

Q: For C82U A111C C150G C169A U176A, which reverse-splicing fitness is on record?
A: Its reverse-splicing fitness is 0.00878.

Q: Which reverse-splicing fitness does the source give for C82U A111C C150G C169A U176C here?
A: The reverse-splicing fitness was 0.00957.

Q: For C82U A111G A120C A145C C150U C169A U176G, which reverse-splicing fitness is on record?
A: Its reverse-splicing fitness is 0.00468.

Q: With C82U A111G A120C A145C C150U C169A U176C as the variant, how does the reverse-splicing fitness read?
A: The reverse-splicing fitness was 0.00487.

Q: For C82U A111G A120C A145C C150U C169A U176A, which reverse-splicing fitness is on record?
A: Its reverse-splicing fitness is 0.00891.

Q: With C82U A111G A120C A145G C150U U176A as the variant, how does the reverse-splicing fitness read?
A: The reverse-splicing fitness was 0.0138.

Q: For C82U A111G A120C A145G C150U U176C, which reverse-splicing fitness is on record?
A: The reverse-splicing fitness was 0.0274.

Q: For C82U A111G A120C A145G C150U U176G, which reverse-splicing fitness is on record?
A: The reverse-splicing fitness was 0.00625.
